Paper PMC6150197, “NeoBOMB1, a GRPR-Antagonist for Breast Cancer Theragnostics: First Results of a Preclinical Study with [^67Ga]NeoBOMB1 in T-47D Cells and Tumor-Bearing Mice” (Molecules : A Journal of Synthetic Chemistry and Natural …, 2017)
Like-named read-outs stand apart in the source and are kept apart here. Square brackets hold non-standard residues; d marks the D form. * marks the point of attachment. DOTA = O=C(O)CN1CCN(CC(=O)O)CCN(CC(=O)*)CCN(CC(=O)O)CC1

Molecular target: T1, GRPR (Homo sapiens, UniProt P30550)
T1 construct: Human ductal breast carcinoma T-47D cells endogenously expressing the GRPR were used in all biological assays; endogenous in cells; host or cells: T-47D human ductal breast carcinoma cells (live, adherent, 4 °C)
T1 sequence (P30550 whole entry): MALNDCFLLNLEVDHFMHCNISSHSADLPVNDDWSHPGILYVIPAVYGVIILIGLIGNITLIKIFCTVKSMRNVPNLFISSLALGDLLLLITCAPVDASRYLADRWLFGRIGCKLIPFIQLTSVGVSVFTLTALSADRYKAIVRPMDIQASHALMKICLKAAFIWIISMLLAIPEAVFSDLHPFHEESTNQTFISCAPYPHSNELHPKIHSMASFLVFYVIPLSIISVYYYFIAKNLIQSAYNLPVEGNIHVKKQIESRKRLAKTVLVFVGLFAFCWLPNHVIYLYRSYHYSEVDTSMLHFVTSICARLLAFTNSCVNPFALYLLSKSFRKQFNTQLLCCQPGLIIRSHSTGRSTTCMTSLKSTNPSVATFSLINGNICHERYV
Assay: Competition binding against [^125I-Tyr^4]BBN in T-47D cells
Method: Methionine was added to the purified radioligand solution to prevent re-oxidation of Met^14 to the corresponding sulfoxide and the resulting stock solution in 0.1% BSA-PBS was kept at −20 °C; aliquots thereof were used for competition binding assays (specific activity of 2.2 Ci/μmol). Samples were measured for radioactivity in an automatic well-type gamma counter (NaI(Tl)] crystal, Canberra Packard Auto-Gamma 5000 series instrument, Schwadorf, Austria).
Human ductal breast carcinoma T-47D cells endogenously expressing the GRPR were used in all biological assays [14, 22, 23]. Cells were cultured in RPMI supplemented with 10% FBS, 100 U/mL penicillin and 100 µg/mL streptomycin, and kept in a controlled humidified atmosphere containing 5% CO2 at 37 °C. Passages were performed weekly using a trypsin/EDTA (0.05%/0.02% w/v) solution.
Cells were seeded in 12-well plates 24 h in advance (0.6 × 10^6 cells per well). On the day of the experiment, cells were placed on ice and washed with chilled washing medium (2 × 1 mL, RPMI supplemented with 1% heat inactivated FBS). […] Lysates were collected, combined and counted for their radioactivity content in a γ-counter. The IC50 values were calculated adopting nonlinear regression according to a one-site model applying the PRISM^TM 2 program (GraphPad Software, San Diego, CA, USA). […]

Compound | IC50 (live T-47D cells, 3 h incubation at 4 °C, one-site model, mean ± sd, n = 3 (n = 5 for [Tyr^4]BBN), in triplicate, read-out: IC50, displacement of [^125I-Tyr^4]BBN from GRPR-sites on T-47D cells) [nM] | IC50 [nM]
[^natGa]NeoBOMB1: NeoBOMB1 metalated with ^natGa ({DOTA-p‑aminomethylaniline-diglycolic acid}-[dF]QWAVGH-{2,6‑dimethylheptan‑4‑yl amide}; also: DOTA chelating natGa(III)) | 2.5 ± 0.2 | –
CC(C)CC(CC(C)C)NC(=O)[C@H](Cc1cnc[nH]1)NC(=O)CNC(=O)[C@@H](NC(=O)[C@H](C)NC(=O)[C@H](Cc1c[nH]c2ccccc12)NC(=O)[C@H](CCC(N)=O)NC(=O)[C@@H](Cc1ccccc1)NC(=O)COCC(=O)Nc1ccc(CNC(=O)CN2CCN(CC(=O)O)CCN(CC(=O)O)CCN(CC(=O)O)CC2)cc1)C(C)C [NeoBOMB1, DOTA-p-aminomethylaniline-diglycolic acid-DPhe-Gln-Trp-Ala-Val-Gly-His-NH-CH[CH2-CH(CH3)2]2] | – | 2.2 ± 0.2
